Source: patent US20250277030A1, “ANTI-NAPI2B ANTIBODIES AND METHODS OF USE” (Zymeworks BC Inc., priority 2022, published 2025)

Target: T1, mouse NaPi2b (Mus musculus, UniProt Q9DBP0)
T1 construct: expressed in transfected cells; host or cells: HEK293-6e
T1 sequence (Q9DBP0 1-697): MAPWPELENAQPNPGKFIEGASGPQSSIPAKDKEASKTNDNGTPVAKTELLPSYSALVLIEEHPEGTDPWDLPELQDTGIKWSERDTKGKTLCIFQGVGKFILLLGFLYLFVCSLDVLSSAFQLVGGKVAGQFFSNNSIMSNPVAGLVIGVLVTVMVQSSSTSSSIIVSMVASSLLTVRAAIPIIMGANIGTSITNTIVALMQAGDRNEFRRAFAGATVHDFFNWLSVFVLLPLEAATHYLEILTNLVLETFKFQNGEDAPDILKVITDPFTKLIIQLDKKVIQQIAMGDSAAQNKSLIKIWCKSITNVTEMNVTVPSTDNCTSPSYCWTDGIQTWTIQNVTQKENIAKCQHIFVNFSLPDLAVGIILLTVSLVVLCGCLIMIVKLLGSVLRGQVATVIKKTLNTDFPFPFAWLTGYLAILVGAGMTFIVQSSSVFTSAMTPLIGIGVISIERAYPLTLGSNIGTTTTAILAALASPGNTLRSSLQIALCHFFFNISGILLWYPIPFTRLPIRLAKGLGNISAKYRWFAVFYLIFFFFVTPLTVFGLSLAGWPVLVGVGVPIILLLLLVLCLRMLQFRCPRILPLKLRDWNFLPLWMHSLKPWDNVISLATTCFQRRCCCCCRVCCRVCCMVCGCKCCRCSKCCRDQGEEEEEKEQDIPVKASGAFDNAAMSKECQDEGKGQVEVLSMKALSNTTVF
Assay: Flow cytometry binding to HEK293-6e cells transfected with mouse NaPi2b (Example 5)
Conditions: transfected HEK293-6e cells, 18-24 hours at 4° C.
Method: The binding cross-reactivity of humanized antibody variant v29456 to human, cynomolgus and mouse NaPi2b was assessed by flow cytometry using HEK293-6e transfected cells.
Briefly, HEK293-6e cells were transfected for ˜24 hours to transiently express human NaPi2b, cynomolgus or mouse NaPi2b, at 1 μg of DNA per 1 million cells. Following transfection, 50,000 cells per well were seeded in V-bottom 96-well plates and incubated with 200 nM of primary antibody for 18-24 hours at 4° C. to prevent internalization. Post-incubation, cells were washed and stained with anti-Human IgG Fc AF647 conjugate (Jackson Immuno Research Labs, West Grove, PA, Cat. No. 109-605-098, Lot. No. 124868) at 4° C. for 1 hour. Following staining and washing, fluorescence was detected by flow cytometry on BD LSRFortessa™ Cell Analyzer (BD Biosciences, Franklin Lake, NJ) with 10,000 minimum events collected per well. The AF647/APC-A GeoMean (fluorescence signal geometric mean, proportional to anti-Human AF647 binding) was calculated for the live singlet cell population for each primary antibody using FlowJo™ v8 software (BD Biosciences, Franklin Lake, NJ). The Bmax and Kd of each primary antibody were calculated using GraphPad Prism Version 9 (GraphPad Software, San Diego, CA)

Bmax (APC-A GeoMean), Ms NaPi2b: 2,062 APC-A GeoMean
Kd (highest antibody concentration 200 nM, read-out: Apparent Kd (nM), Ms NaPi2b): 10.6 nM
B1: v29456: humanized anti-NaPi2b IgG1/kappa antibody H1L2; VH SEQ ID NO:24, VL SEQ ID NO:29 (antibody, V domains shown)
VH: QVQLVQSGAEVKKPGASVKVSCKASGFTFTSYNVHWVRQAPGQGLEWMGAISPGNGDLSYAQKFQGRVTMTRDTSTSTVYMELSSLRSEDTAVYYCARGRTGMGAVDYWGQGTLVTVSS
VL: DVQMTQSPSSLSASVGDRVTITCRASQDVYSYLNWYQQKPGKAVKLLIYYTSRLQSGVPSRFSGSGSGTDYTLTISSLQPEDFATYYCQQYNIFPWTFGQGTKLEIK
modifications: v29452, v29456, v29460 VH (H1); v29453, v29454, v29455, v29456 VL (L2)
